One assay concerns the target T1, mouse Trop-2-His (mouse, UniProt Q8BGV3 25-270).
T1 sequence (looked up): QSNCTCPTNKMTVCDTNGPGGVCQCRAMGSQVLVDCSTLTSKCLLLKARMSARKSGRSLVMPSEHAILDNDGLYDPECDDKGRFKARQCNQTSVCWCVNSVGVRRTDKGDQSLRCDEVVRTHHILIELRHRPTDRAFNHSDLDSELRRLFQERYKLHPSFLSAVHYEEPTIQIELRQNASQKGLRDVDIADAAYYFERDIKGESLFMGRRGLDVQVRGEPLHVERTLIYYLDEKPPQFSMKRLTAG
The assay is described as follows: ELISA on coated antigen, one antibody dilution (concentration not given); on the sheet OD405, detected by GAM/H-AP. In general terms: In an ELISA, binding on a coated surface is turned into a signal by an enzyme label.

Another assay concerns the target T2, human EPCAM-His (human, UniProt P16422 24-265).
T2 construct: also called hEPCAM
T2 sequence (looked up): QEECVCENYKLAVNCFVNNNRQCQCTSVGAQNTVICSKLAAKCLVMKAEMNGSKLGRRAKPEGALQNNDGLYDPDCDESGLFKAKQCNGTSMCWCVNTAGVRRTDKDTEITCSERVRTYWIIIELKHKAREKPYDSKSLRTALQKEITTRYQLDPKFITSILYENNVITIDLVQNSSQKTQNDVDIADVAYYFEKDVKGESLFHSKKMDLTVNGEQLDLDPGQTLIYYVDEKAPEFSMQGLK
The assay is described as above.

Assay [1] addresses T3, human Trop-2 on Trop-2 positive cancer cells (human, UniProt P09758 27-323).
T3 sequence (looked up): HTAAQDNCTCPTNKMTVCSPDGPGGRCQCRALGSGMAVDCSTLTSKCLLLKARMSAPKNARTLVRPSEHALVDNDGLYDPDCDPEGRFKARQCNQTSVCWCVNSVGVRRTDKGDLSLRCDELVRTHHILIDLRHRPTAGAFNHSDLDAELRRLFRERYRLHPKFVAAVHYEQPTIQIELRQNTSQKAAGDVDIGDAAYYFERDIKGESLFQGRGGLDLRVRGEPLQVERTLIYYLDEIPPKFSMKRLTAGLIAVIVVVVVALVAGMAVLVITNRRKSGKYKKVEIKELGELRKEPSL
As to the kind of experiment: cell-based or functional assay.

Assay [2] deals with T3, human Trop-2 on Trop-2 positive cancer …. As to the kind of experiment: flow cytometry on MDA-MB-468 cells, MFI at 4 °C against the antibody concentration (about 400 to 10000 ng/ml); Kd (µg/ml) printed beside the legend. Here is the method:
Internalizationi and degradation of anti-Trop-2 antibodies was measured by flow cytometry. In this study, fluorescent-conjugated secondary antibodies were used to detect the primary antibodies left on after internalization.
Next, either hRS7, or A1X4, or A1,2X4 antibody was added to cells in FACS buffer at concentrations of 400, 1000, 3000, or 10000 ng/ml, respectively, and incubated for 30 minutes at 4° C. After incubation, the cells were washed three times with FACS buffer to removed unbound antibody. The cells were then incubated at 37° C. with 5% CO₂ for antibody internalization. After 2 hours, the cells were dissociated with Trypsin and stained with fluorescent-conjugated goat anti-human IgG secondary antibodies for 30 minutes on ice in dark before being analyzed using Beckman flow cytometry system. The fluorescent intensity and cell binding percentage at each time point were analyzed by Beckman flow cytometric software. The amount of anti-Trop-2 antibodies internalized into cells at each concentration was determined using the following formula: % internalization rate = 100 × (MFI₄°C- MFI₃₇°C) / MFI₄°C
On the technique in general: Flow cytometry measures light scatter and fluorescence of single cells or particles in a stream.

In assay [3] the target is T4, human Trop-2-ECD-6His fusion protein (human, UniProt P09758 27-274).
T4 construct: Expressed in a human 293 cell line; also called huTrop-2; human Trop-2 antigen
T4 sequence: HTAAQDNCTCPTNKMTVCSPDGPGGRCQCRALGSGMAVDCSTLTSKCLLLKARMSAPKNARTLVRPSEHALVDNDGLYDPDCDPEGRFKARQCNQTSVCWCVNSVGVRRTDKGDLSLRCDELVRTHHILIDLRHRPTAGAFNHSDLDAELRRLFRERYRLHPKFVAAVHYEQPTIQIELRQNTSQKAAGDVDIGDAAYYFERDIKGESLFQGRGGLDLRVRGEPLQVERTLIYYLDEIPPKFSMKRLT
The assay is described as follows: antigen binding ELISA on immobilized human Trop-2-ECD-6His.

For assay [4], the target named is T4, human Trop-2-ECD-6His fusion protein. The assay is described as follows: BLI (Octet), antibody at 8 ug/ml, human Trop-2ECD-6His at 3.125-50 nM. As to the method: The binding affinity of the purified anti-Trop-2 IgGs to human Trop-2 protein were determined by Octet system based on Bio-Layer Interferometry (BLI) technique. BLI is a layer of molecules attached to the tip of an optic fiber which creates an interference pattern at the detector, any change in the number of molecules bound causes a measured shift in the pattern. Octet system enables real-time analysis for determination of affinity and kinetics from biomolecular interactions in 96-well microplates. […] A1X4 or A1,2X4 antibody was diluted and added to the assigned wells at a final concentration 8 µg/ml. The plate was put in the Octet system and assay was started. The data was analyzed using the Octet Data Acquisition Software (fortebio data analysis 10.0) to calculate an association rate constant Kon, a dissociation rate constant Koff, and a dissociation constant Kd (Kd = Koff/Kon).
Background: In BLI a coated tip is dipped into the sample, and binding shifts an interference pattern.

The target of assay [5] is T3, human Trop-2 on Trop-2 positive cancer …. The assay is described as follows: cell-based or functional assay. This is another data set of the same source.
Assay [6] addresses T4, human Trop-2-ECD-6His fusion protein. As to the kind of experiment: antigen binding ELISA on immobilized human Trop-2-ECD-6His. The source holds these as a separate data set.

Where two headings read alike, the source gives them in different places.

B1: murine-human chimeric IgG1 #125-1-5 (antibody, V domains shown)
VH: QIQLVQSGPELVKPGASVKMSCKASGYTFTTYVIHWVKQKPGQGLEWIGYINPNNDGTKYNEKFKGKATLISDKSSTTAYMEVRGLTSEDSAVYYCARPHFETHAMDYWGQGTSVTVSS
VL: DIQMTQSPSSFSVSLGDSVTITCKASEDIFNRLAWYQQKPGNAPRLLISGATSLETGVPSRFSGGGSGKEYTLSITSLQNEDVATYYCQQYWNTWTFGGGTKLEIKR
notes: Chimeric IgG1 expressed in HEK293-6E cells
On to B1, for which the binding result with mouse Trop-2-His and with human EPCAM-His was “no binding” each time.

B2: benchmark antibody hRS7 (antibody, V domains shown)
VH: QVQLQQSGSELKKPGASVKVSCKASGYTFTNYGMNWVKQAPGQGLKWMGWINTYTGEPTYTDDFKGRFAFSLDTSVSTAYLQISSLKADDTAVYFCARGGFGSSYWYFDVWGQGSLVTVSS
VL: DIQLTQSPSSLSASVGDRVSITCKASQDVSIAVAWYQQKPGKAPKLLIYSASYRYTGVPDRFSGSGSGTDFTLTISSLQPEDFAVYYCQQHYITPLTFGAGTKVDIK
In the case of B2, the “Internalization rate (flow cytometry, MDA-MB-468 cells)” value in assay [1] turned out to be 23.9%; in assay [5], 10.9%. Further, the results for the Kd in assay [2] and in assay [4] were 0.78 µg/mL and 780 pM, respectively. Moreover, the EC50 (usually the concentration giving half of the maximal effect) in assay [3] was 62 pM; in assay [6], 90 pM. In addition, in assay [4], the koff (as a rule, the first-order rate constant of dissociation) stood at 0.000244 s⁻¹.

B3: murine-human chimeric IgG1 #118-2-5 (antibody, V domains shown)
VH: QVQLKQSGPGLVAPSQSLSITCTVSGFSLTSYGVNWIRQPPGKGLEWLGVMWAGGSTNYNSALMSRLSISKDNSKSQVFLKMNSLQTDDTGMYYCARDENWDGAWFAYWGQGTLVTVSA
VL: DIQMTQSPSSLAVSAGEKVTMSCKSSQSLLNSGTRKNYLAWYQQKPGQSPKLLISWASSRESGVPDRFTGSGSGTDFTLTISSVQAEDLAVYYCKQSYNLFTFGGGTKLELKR
notes: as for B1
On to B3, for which the binding result with mouse Trop-2-His and with human EPCAM-His was “no binding” throughout.

For the origin of these results see patent US20230235080A1, “TROPHOBLAST CELL-SURFACE ANTIGEN-2 (TROP-2) ANTIBODIES” (Bionecure Therapeutics, Inc., priority 2020, published 2023).
